PMC3828522 (Genes & Development, 2013)

Assays:
[1] = target: full-length Pho protein (EMSA) (Drosophila melanogaster, UniProt Q8ST83 1-520); test: native gel or EMSA
[2] = target: biotin-Pho spacer peptide (Drosophila melanogaster, UniProt Q8ST83 145-172, biotin (position not given)); test: SPR
[3] = target: biotin-YY1 spacer peptide (human, UniProt P25490 199-228, biotin (position not given)); test: SPR
biotin-YY1 spacer peptide, sequence (P25490 199-228): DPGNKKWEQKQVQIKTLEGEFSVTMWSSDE

full-length Pho protein (EMSA), sequence (Q8ST83 whole entry): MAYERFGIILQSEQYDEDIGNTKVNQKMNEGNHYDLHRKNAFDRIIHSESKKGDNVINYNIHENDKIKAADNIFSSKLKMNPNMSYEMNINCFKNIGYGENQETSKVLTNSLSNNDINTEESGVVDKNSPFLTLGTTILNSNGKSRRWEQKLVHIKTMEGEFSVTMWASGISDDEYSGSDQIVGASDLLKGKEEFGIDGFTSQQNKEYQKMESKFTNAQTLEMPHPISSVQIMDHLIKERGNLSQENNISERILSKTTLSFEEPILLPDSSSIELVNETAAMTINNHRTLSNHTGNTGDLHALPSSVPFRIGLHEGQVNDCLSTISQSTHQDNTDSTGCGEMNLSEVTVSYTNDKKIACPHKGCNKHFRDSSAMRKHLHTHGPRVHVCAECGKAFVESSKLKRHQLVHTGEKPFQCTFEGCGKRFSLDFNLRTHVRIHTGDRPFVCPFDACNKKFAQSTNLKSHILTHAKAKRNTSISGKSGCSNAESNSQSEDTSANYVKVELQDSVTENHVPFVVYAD
biotin-Pho spacer peptide, sequence (Q8ST83 145-172): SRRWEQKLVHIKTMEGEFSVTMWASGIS

| Binder | fold weaker affinity than the Drosophila complex [3] [fold] | further results |
| --- | --- | --- |
| Sfmbt 4MBT domain (Sfmbt 531-980), wild type (domain or fragment, Drosophila melanogaster, UniProt Q9VK33 531-980, looked up) DPTHSYDWLPRLSKENFNAAPVTCFPHAPGCEVWDNLGVGMKVEVENTDCDSIEVIQPGQTPTSFWVATILEIKGYKALMSYEGFDTDSHDFWVNLCNAEVHSVGWCATRGKPLIPPRTIEHKYKDWKDFLVGRLSGARTLPSNFYNKINDSLQSRFRLGLNLECVDKDRISQVRLATVTKIVGKRLFLRYFDSDDGFWCHEDSPIIHPVGWATTVGHNLAAPQDYLERMLAGREAMIEVHEDDATIELFKMNFTFDEYYSDGKTNSFVEGMKLEAVDPLNLSSICPATVMAVLKFGYMMIRIDSYQPDASGSDWFCYHEKSPCIFPAGFCSVNNISVTPPNGYDSRTFTWEGYLRDTGAVAAGQHLFHRIIPDHGFEVGMSLECADLMDPRLVCVATVARVVGRLLKVHFDGWTDEYDQWLDCESADIYPVGWCVLVNHKLEGPPRVAH |  | binding result [1]: binds |
| Sfmbt 4MBT S633P/S673P (domain or fragment, Drosophila melanogaster, UniProt Q9VK33 531-980, looked up) DPTHSYDWLPRLSKENFNAAPVTCFPHAPGCEVWDNLGVGMKVEVENTDCDSIEVIQPGQTPTSFWVATILEIKGYKALMSYEGFDTDSHDFWVNLCNAEVHPVGWCATRGKPLIPPRTIEHKYKDWKDFLVGRLSGARTLPPNFYNKINDSLQSRFRLGLNLECVDKDRISQVRLATVTKIVGKRLFLRYFDSDDGFWCHEDSPIIHPVGWATTVGHNLAAPQDYLERMLAGREAMIEVHEDDATIELFKMNFTFDEYYSDGKTNSFVEGMKLEAVDPLNLSSICPATVMAVLKFGYMMIRIDSYQPDASGSDWFCYHEKSPCIFPAGFCSVNNISVTPPNGYDSRTFTWEGYLRDTGAVAAGQHLFHRIIPDHGFEVGMSLECADLMDPRLVCVATVARVVGRLLKVHFDGWTDEYDQWLDCESADIYPVGWCVLVNHKLEGPPRVAH |  | fold decrease in binding affinity against the wild type [2]: 2 fold |
| L3MBTL2 4MBT domain, human (domain or fragment) TGQDALVLGFDWGKFLKDHSYKAAPVSCFKHVPLYDQWEDVMKGMKVEVLNSDAVLPSRVYWIASVIQTAGYRVLLRYEGFENDASHDFWCNLGTVDVHPIGWCAINSKILVPPRTIHAKFTDWKGYLMKRLVGSRTLPVDFHIKMVESMKYPFRQGMRLEVVDKSQVSRTRMAVVDTVIGGRLRLLYEDGDSDDDFWCHMWSPLIHPVGWSRRVGHGIKMSERRSDMAHHPTFRKIYCDAVPYLFKKVRAVYTEGGWFEEGMKLEAIDPLNLGNICVATVCKVLLDGYLMICVDGGPSTDGLDWFCYHASSHAIFPATFCQKNDIELTPPKGYEAQTFNWENYLEKTKSKAAPSRLFNMDCPNHGFKVGMKLEAVDLMEPRLICVATVKRVVHRLLSIHFDGWDSEYDQWVDCESPDIYPVGWCELTGYQLQPPVAAEPATPLKAKEATKKKKKQ | ~50 |  |
| MBTD1 4MBT domain, human (domain or fragment) AKTKAAVSMEGFSWGNYINSNSFIAAPVTCFKHAPMGTCWGDISENVRVEVPNTDCSLPTKVFWIAGIVKLAGYNALLRYEGFENDSGLDFWCNICGSDIHPVGWCAASGKPLVPPRTIQHKYTNWKAFLVKRLTGAKTLPPDFSQKVSESMQYPFKPCMRVEVVDKRHLCRTRVAVVESVIGGRLRLVYEESEDRTDDFWCHMHSPLIHHIGWSRSIGHRFKRSDITKKQDGHFDTPPHLFAKVKEVDQSGEWFKEGMKLEAIDPLNLSTICVATIRKVLADGFLMIGIDGSEAADGSDWFCYHATSPSIFPVGFCEINMIELTPPRGYTKLPFKWFDYLRETGSIAAPVKLFNKDVPNHGFRVGMKLEAVDLMEPRLICVATVTRIIHRLLRIHFDGWEEEYDQWVDCESPDLYPVGWCQLTGYQLQPPASQSSR | ~50 |  |
